Positions count from the first letter of the chain named. Numbers in names are those of the source. Values belong to the binder of their own block, whether it stands above or below them.
Columns and labels:
[1] = target: T1, monkey activated protein C (Macaca sp. (monkey plasma, species not …, UniProt A0A1D5QSH6)); assay: cell-based or functional assay
human FVIIa = human FVIIa (Homo sapiens, UniProt P08709); assay: ELISA; data not shown; human FIIa, FVIIa, FIXa, FXa, FXIa, FXIIa coated directly on Maxisorp plates at 5–10 µg/mL; anti-APC antibodies at 20 nM; details: both partners purified
human FIXa = human FIXa (Homo sapiens, UniProt P00740); assay: as above; details: both partners purified
human FXa = human FXa (Homo sapiens, UniProt P00742); assay: as above; details: both partners purified
human FXIa = human FXIa (Homo sapiens, UniProt P03951); assay: as above; details: both partners purified
human FXIIa = human FXIIa (Homo sapiens, UniProt P00748); assay: as above; details: both partners purified
human FIIa = target: T2, human FIIa (Homo sapiens, UniProt P00734); assay: as above; details: both partners purified
T2 construct: human FIIa (thrombin), light chain; human FIIa (thrombin), heavy (catalytic) chain; also called thrombin

[2] = target: T1, monkey activated protein C; assay: ELISA; data not shown; species cross-reactivity; species' APC or PC coated directly on Maxisorp plates at 100 ng/well in PBS/Ca2+; antibodies titrated; details: both partners purified
[3] = target: T3, rabbit activated protein C (Oryctolagus cuniculus, UniProt Q28661); assay: as above; details: both partners purified
T3 construct: also called rabbit APC

dog activated protein C = target: T4, dog activated protein C (Canis lupus familiaris, UniProt Q28278); assay: as above; details: both partners purified
T4 construct: also called dog APC

[4] = target: T5, plasma-derived hAPC-Gla-domainless (APC-GD) (Homo sapiens, UniProt P04070); assay: ELISA; APC-binding ELISA of the purified Fabs on human APC and Gla-domainless APC; format not told; details: both partners purified
T5 construct: also called APC (in the crystal structures); source: bought: plasma-derived, Enzyme Research Laboratories

[5] = target: T6, human activated protein C (Homo sapiens); assay: cell-based or functional assay
T6 chain 1: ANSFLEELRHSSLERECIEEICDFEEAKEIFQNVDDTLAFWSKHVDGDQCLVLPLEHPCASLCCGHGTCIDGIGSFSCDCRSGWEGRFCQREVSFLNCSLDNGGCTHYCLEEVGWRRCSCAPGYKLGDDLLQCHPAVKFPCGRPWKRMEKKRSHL
T6 chain 2: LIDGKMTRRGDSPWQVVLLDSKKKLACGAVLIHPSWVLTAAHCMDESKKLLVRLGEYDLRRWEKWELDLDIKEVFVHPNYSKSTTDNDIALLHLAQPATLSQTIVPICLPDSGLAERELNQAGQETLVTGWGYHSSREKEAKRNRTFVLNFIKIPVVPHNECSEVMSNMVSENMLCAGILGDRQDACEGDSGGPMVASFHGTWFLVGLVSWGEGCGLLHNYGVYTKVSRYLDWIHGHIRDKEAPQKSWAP

[6] = target: T7, Phe–Pro–Arg–chloromethylketone active-site-blocked APC (PPACK-hAPC) (Homo sapiens, UniProt P04070, active site blocked by Phe–Pro–Arg–chloromethylketone (PPACK)); assay: ELISA; PPACK-hAPC or hAPC coated onto a MaxiSorp plate at 100 ng per well overnight; IgG or Fab at concentrations starting at 20 nM; details: both partners purified
T7 construct: also called PPACK-APC

[7] = target: T6, human activated protein C; assay: ELISA; hAPC or hPC coated directly on Maxisorp plates at 100 ng/well in PBS/Ca2+; antibodies titrated, 1 h at RT; detection with HRP anti-human Fc; details: both partners purified
[8] = target: T8, monkey protein C (zymogen) (Macaca sp. (monkey plasma, species not …, UniProt A0A1D5QSH6)); assay: ELISA; data not shown; species cross-reactivity; species' APC or PC coated directly on Maxisorp plates at 100 ng/well in PBS/Ca2+; antibodies titrated; details: both partners purified
T8 construct: monkey protein C zymogen, light chain; also called monkey PC

[9] = target: T6, human activated protein C; assay: SPR; Biacore T200, 25 °C, HBS-P+ (10 mM HEPES pH 7.4, 150 mM NaCl, 0.05% P20) with 1 mg/mL BSA; mAbs captured by immobilised mouse anti-human Fc antibody on CM5; hAPC injected at 1.56-200 nM, hPC at 1.56-1000 nM; 1:1 Langmuir fit; details: both partners purified
[10] = target: T9, human protein C (zymogen) (Homo sapiens, UniProt P04070); assay: as above; details: both partners purified
T9 construct: human protein C zymogen, light chain; also called hPC; PC; source: bought: plasma-derived, Enzyme Research Laboratories

Protac-aPTT in FVIII-antibody-induced hemophilia A monkey plasma, inhibition of APC anticoagulant activity, IC50 [1]: 9.3 nM
binding result (human FVIIa): no binding (tested: 20 nM)
binding result (human FIXa): no binding (tested: 20 nM)
binding result (human FXa): no binding (tested: 20 nM)
binding result (human FXIa): no binding (tested: 20 nM)
binding result (human FXIIa): no binding (tested: 20 nM)
binding result (human FIIa): no binding (tested: 20 nM)
EC50 [2]: ~1 nM
EC50 [3]: ~1 nM
EC50 (dog activated protein C): ~1 nM
B1: type I anti-APC mAb TPP-2312 (BAY1316786) (antibody, V domains shown)
VH: EVQLLESGGGLVQPGGSLRLSCAASGFTFSSYWMSWVRQAPGKGLEWVSGVSWNGARTHYADSVKGRFTISRDNSKNTLYLQMNSLRAEDTAVYYCALTGRSGWMRFPNWFDPWGQGTLVTVSS
VL: QSVLTQPPSVSGAPGQRVTISCTGSSSNIGAAYDVHWYQQLPGTAPKLLIYGNNKRPSGVPDRFSGSKSGTSASLAITGLQAEDEADYYCQSYDSSLSGSVFGGGTKLTVL
notes: variable region as the heavy chain of C25K23 with S56A in CDR2, joined to the hIgG2 constant region (CH1-CH2-CH3); as the light chain of C25K23 with K55R in CDR2; hIgG2; Candidate C25K23 was germlined and optimized to become TPP-2312; also called type I mAb; source: HEK293-6E, transiently co-transfected (pTT5), purified (protein A, SEC)

EC50 [4]: 2 to 4 nM
B2: C25K23Fab (type I Fab, TTP-2781) (Fab, V domains shown)
VH: B1 VH with A56S, S123T
VL: B1 VL with V10A, A13T, T78S, Q81R, A82S
notes: Parent of TPP-2312; also called type I (C25K23) Fab; source: E. coli, purified (Protein A chromatography)

Protac-aPTT in FVIII-antibody-induced hemophilia A monkey plasma, inhibition of APC anticoagulant activity, IC50 [1]: 19.3 nM
Protac-aPTT in FVIII-antibody-treated normal human plasma, IC50 [5]: 12 nM
Protac-aPTT in hemophilia A plasma, inhibition of APC activity, IC50 [5]: 11.6 nM
Protac-aPTT in normal human plasma, inhibition of APC anticoagulant activity, IC50 [5]: ~7 nM
binding result [6]: binds
binding result (human FVIIa): no binding (tested: 20 nM)
binding result (human FIXa): no binding (tested: 20 nM)
binding result (human FXa): no binding (tested: 20 nM)
binding result (human FXIa): no binding (tested: 20 nM)
binding result (human FXIIa): no binding (tested: 20 nM)
binding result (human FIIa): no binding (tested: 20 nM)
EC50 [7]: 0.8 nM
EC50 [2]: ~1 nM
binding result [3]: no binding
binding result (dog activated protein C): no binding
binding result [8]: no binding
Kd [9]: 10 nM
binding result [10]: no binding (tested: 1000 nM)
B3: type II anti-APC mAb TPP-4885 (BAY1896502) (antibody, V domains shown)
VH: EVQLVESGGGLVQPGGSLRLSCAASGFTFSNYYLNWVRQAPGKGLEWVGDIRLKSNNYEKHYAESVKGRFTISRDDSKNSLYLQMNSLKTEDTAVYYCAREGDYFDYWGQGTLVTVSS
VL: DIVLTQSPASLAVSPGQRATITCKASESVDSFGATFMHWYQQKPGQPPKLLIYLASNLESGVPARFSGSGSGTDFTLTINPVEADDTANYYCQQNNEDPYTFGQGTKLEIK
notes: humanized/optimized from mouse HAPC1573; variable region from the Fab joined to the hIgG2 constant region (CH1-CH2-CH3); humanized/optimized from mouse HAPC1573 (kappa); hIgG2; Derived from HAPC1573 (mIgG1/k) by humanization and optimization; also called type II mAb; BAY 1896052; source: HEK293-6E, transiently co-transfected (pTT5), purified (protein A, SEC)

binding result [6]: binds
B4: hu1573Fab (type II Fab, TPP-5040) (Fab, V domains shown)
VH: B3 VH
VL: B3 VL
notes: Humanized Fab of mouse HAPC1573; also called h1573Fab; type II (h1573) Fab; source: QMCF cells (CHO-based), transiently transfected (pTT5), purified from conditioned medium (KappaSelect, SEC)
